Experimental data as given in publication PMC5888579.

Target: FEN1 (human, UniProt P39748 2-380)
Experiment: smFRET kinetics

FEN1, sequence (P39748 2-380): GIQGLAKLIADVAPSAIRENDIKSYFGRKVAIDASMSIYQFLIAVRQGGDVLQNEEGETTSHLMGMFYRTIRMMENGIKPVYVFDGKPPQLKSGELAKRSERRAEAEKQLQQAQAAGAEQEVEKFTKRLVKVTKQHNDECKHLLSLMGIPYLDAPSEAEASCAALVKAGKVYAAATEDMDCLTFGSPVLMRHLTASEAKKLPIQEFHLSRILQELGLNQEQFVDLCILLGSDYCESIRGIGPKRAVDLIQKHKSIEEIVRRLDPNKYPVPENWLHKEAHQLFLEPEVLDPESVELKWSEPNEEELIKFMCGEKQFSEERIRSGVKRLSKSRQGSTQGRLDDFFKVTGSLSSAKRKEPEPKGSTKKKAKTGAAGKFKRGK

B1: NickInternal (dsDNA)
DNA 1: TGACCGTGTTTGACGGTCGTGAGGAGGAAAGTTCCTCCTACGGCAG
DNA 2: CTGCCGTAGGAGGAACTTTCCTCCTC
DNA 3: ACGACCGTCAAACAACGGTCA
modifications: 5' phosphate at nick; biotin; iCy3 internal in template
Kd: 62 ± 9 nM
